# T1: Yhr016c SH3 (YSC84_YEAST), P32793
# T1 chain: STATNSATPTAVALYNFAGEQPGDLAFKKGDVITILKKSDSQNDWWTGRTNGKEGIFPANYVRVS
# T2: Boi1 SH3 (BOI1_YEAST), P38041
# T2 chain: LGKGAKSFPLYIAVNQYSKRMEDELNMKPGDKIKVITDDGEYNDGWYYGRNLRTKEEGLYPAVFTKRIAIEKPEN
# T3: Boi2 SH3 (BOI2_YEAST), P39969
# T3 chain: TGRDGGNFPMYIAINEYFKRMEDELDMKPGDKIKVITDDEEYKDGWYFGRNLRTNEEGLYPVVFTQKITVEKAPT
# T4: Yfr024 SH3 (LSB3_YEAST), P43603
# T4 chain: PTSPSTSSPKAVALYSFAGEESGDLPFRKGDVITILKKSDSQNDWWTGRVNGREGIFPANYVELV
# T5: Rvs167 SH3 (RV167_YEAST), P39743
# T5 chain: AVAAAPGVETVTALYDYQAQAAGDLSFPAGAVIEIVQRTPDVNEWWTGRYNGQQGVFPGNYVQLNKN
# Biological target: T1, Yhr016c SH3 (YSC84_YEAST), P32793
# Experiment: SPOT array
row,"normalised SPOT signal, Boehringer light units (BLU); mean over the file's lines of this peptide",Binder
1,172,KYDPEDPNRRKLAR [YPL093W 387-400]
2,161,LGEPFDPNKHEATF [YOR232W 175-188]
3,211,LHVPRNPSKSRRGS [YLR310C 161-174]
4,29100,LDRPQLPPRQVVNA [YMR192W 159-172]
5,96.5,LEQPAEPSKLAKKL [YMR108W 66-79]
6,488,KYGPLPPSRASVGS [YLR143W 388-401]
7,227,LHDPLVPIKSYGLT [YMR185W 739-752]
8,174,LFGPSFPNKTTVEI [YNL197C 178-191]

# Further lines, the binder ahead of its results:
row,Binder,"normalised SPOT signal, Boehringer light units (BLU); mean over the file's lines of this peptide"
1,LIPPLHPLKKQHPK [YIL089W 44-57],366
2,LHYPYGPARNPSYI [YJR126C 313-326],142
3,LGAPFSPRRKDKLV [YJL172W 363-376],250
4,LIDPSTPDKAAKKD [YGR083C 353-366],302
5,LDYPKAPIKLTMKS [YIL161W 160-173],344
6,LARPPPPKRIRTDS [YKL139W 32-45],3210
7,LENPSTPDKTEEDW [YKL010C 724-737],68.6
8,LAPPLSPTKPSPLH [YDR425W 253-266],77.1
9,LSIPDLPLRIHNQT [YCR087W 13-26],31200
10,LHGPFKPVKSSNGE [YER134C 25-38],150
11,LDDPFTPPRWLHHI [YDR128W 52-65],708
12,LIMPIYPYRLVSTI [YIL173W 525-538],973
13,LDHPNIPWKLIISG [YJR117W 8-21],150
14,LIPPGFPTKNYPPG [YCL010C 185-198],323

# Biological target: T2, Boi1 SH3 (BOI1_YEAST), P38041
# Experiment: SPOT array
row,"normalised SPOT signal, Boehringer light units (BLU); mean over the file's lines of this peptide",Binder
1,310,KYDPEDPNRRKLAR [YPL093W 387-400]
2,98.8,LGEPFDPNKHEATF [YOR232W 175-188]
3,153,LHVPRNPSKSRRGS [YLR310C 161-174]
4,143,LDRPQLPPRQVVNA [YMR192W 159-172]
5,86.5,LEQPAEPSKLAKKL [YMR108W 66-79]
6,551,KYGPLPPSRASVGS [YLR143W 388-401]
7,0,LHDPLVPIKSYGLT [YMR185W 739-752]
8,91.9,LFGPSFPNKTTVEI [YNL197C 178-191]

# Continued, binder first:
row,Binder,"normalised SPOT signal, Boehringer light units (BLU); mean over the file's lines of this peptide"
1,LIPPLHPLKKQHPK [YIL089W 44-57],10.8
2,LHYPYGPARNPSYI [YJR126C 313-326],146
3,LGAPFSPRRKDKLV [YJL172W 363-376],140
4,LIDPSTPDKAAKKD [YGR083C 353-366],24.8
5,LDYPKAPIKLTMKS [YIL161W 160-173],48
6,LARPPPPKRIRTDS [YKL139W 32-45],528
7,LENPSTPDKTEEDW [YKL010C 724-737],50.1
8,LAPPLSPTKPSPLH [YDR425W 253-266],81.4
9,LSIPDLPLRIHNQT [YCR087W 13-26],69.2
10,LHGPFKPVKSSNGE [YER134C 25-38],103
11,LDDPFTPPRWLHHI [YDR128W 52-65],423
12,LIMPIYPYRLVSTI [YIL173W 525-538],95.2
13,LDHPNIPWKLIISG [YJR117W 8-21],76.1
14,LIPPGFPTKNYPPG [YCL010C 185-198],40.1

# Biological target: T3, Boi2 SH3 (BOI2_YEAST), P39969
# Experiment: SPOT array
row,"normalised SPOT signal, Boehringer light units (BLU); mean over the file's lines of this peptide",Binder
1,15.7,KYDPEDPNRRKLAR [YPL093W 387-400]
2,73.9,LGEPFDPNKHEATF [YOR232W 175-188]
3,234,LHVPRNPSKSRRGS [YLR310C 161-174]
4,31.9,LDRPQLPPRQVVNA [YMR192W 159-172]
5,37.3,LEQPAEPSKLAKKL [YMR108W 66-79]
6,41.5,KYGPLPPSRASVGS [YLR143W 388-401]
7,13.6,LHDPLVPIKSYGLT [YMR185W 739-752]
8,30.3,LFGPSFPNKTTVEI [YNL197C 178-191]

# Second part, the binder before the results:
row,Binder,"normalised SPOT signal, Boehringer light units (BLU); mean over the file's lines of this peptide"
1,LIPPLHPLKKQHPK [YIL089W 44-57],17.8
2,LHYPYGPARNPSYI [YJR126C 313-326],31.8
3,LGAPFSPRRKDKLV [YJL172W 363-376],25.3
4,LIDPSTPDKAAKKD [YGR083C 353-366],19.8
5,LDYPKAPIKLTMKS [YIL161W 160-173],12.9
6,LARPPPPKRIRTDS [YKL139W 32-45],70.2
7,LENPSTPDKTEEDW [YKL010C 724-737],52.1
8,LAPPLSPTKPSPLH [YDR425W 253-266],6.5
9,LSIPDLPLRIHNQT [YCR087W 13-26],35.3
10,LHGPFKPVKSSNGE [YER134C 25-38],77.4
11,LDDPFTPPRWLHHI [YDR128W 52-65],38.5
12,LIMPIYPYRLVSTI [YIL173W 525-538],560
13,LDHPNIPWKLIISG [YJR117W 8-21],35.2
14,LIPPGFPTKNYPPG [YCL010C 185-198],40.7

# Biological target: T4, Yfr024 SH3 (LSB3_YEAST), P43603
# Experiment: SPOT array
row,"normalised SPOT signal, Boehringer light units (BLU); mean over the file's lines of this peptide",Binder
1,222,KYDPEDPNRRKLAR [YPL093W 387-400]
2,68.3,LGEPFDPNKHEATF [YOR232W 175-188]
3,1260,LHVPRNPSKSRRGS [YLR310C 161-174]
4,14400,LDRPQLPPRQVVNA [YMR192W 159-172]
5,19.3,LEQPAEPSKLAKKL [YMR108W 66-79]
6,2010,KYGPLPPSRASVGS [YLR143W 388-401]
7,126,LHDPLVPIKSYGLT [YMR185W 739-752]
8,88.8,LFGPSFPNKTTVEI [YNL197C 178-191]

# The next lines start with the binder.
row,Binder,"normalised SPOT signal, Boehringer light units (BLU); mean over the file's lines of this peptide"
1,LIPPLHPLKKQHPK [YIL089W 44-57],1420
2,LHYPYGPARNPSYI [YJR126C 313-326],277
3,LGAPFSPRRKDKLV [YJL172W 363-376],1510
4,LIDPSTPDKAAKKD [YGR083C 353-366],0
5,LDYPKAPIKLTMKS [YIL161W 160-173],538
6,LARPPPPKRIRTDS [YKL139W 32-45],15700
7,LENPSTPDKTEEDW [YKL010C 724-737],61
8,LAPPLSPTKPSPLH [YDR425W 253-266],111
9,LSIPDLPLRIHNQT [YCR087W 13-26],25400
10,LHGPFKPVKSSNGE [YER134C 25-38],288
11,LDDPFTPPRWLHHI [YDR128W 52-65],3400
12,LIMPIYPYRLVSTI [YIL173W 525-538],3060
13,LDHPNIPWKLIISG [YJR117W 8-21],7.9
14,LIPPGFPTKNYPPG [YCL010C 185-198],85.1

# Biological target: T5, Rvs167 SH3 (RV167_YEAST), P39743
# Experiment: SPOT array
row,"normalised SPOT signal, Boehringer light units (BLU); mean over the file's lines of this peptide",Binder
1,30.9,KYDPEDPNRRKLAR [YPL093W 387-400]
2,10.7,LGEPFDPNKHEATF [YOR232W 175-188]
3,129,LHVPRNPSKSRRGS [YLR310C 161-174]
4,25900,LDRPQLPPRQVVNA [YMR192W 159-172]
5,8.3,LEQPAEPSKLAKKL [YMR108W 66-79]
6,65.7,KYGPLPPSRASVGS [YLR143W 388-401]
7,47.9,LHDPLVPIKSYGLT [YMR185W 739-752]
8,19.9,LFGPSFPNKTTVEI [YNL197C 178-191]

# The next lines start with the binder.
row,Binder,"normalised SPOT signal, Boehringer light units (BLU); mean over the file's lines of this peptide"
1,LIPPLHPLKKQHPK [YIL089W 44-57],35.3
2,LHYPYGPARNPSYI [YJR126C 313-326],56.4
3,LGAPFSPRRKDKLV [YJL172W 363-376],59.5
4,LIDPSTPDKAAKKD [YGR083C 353-366],28.2
5,LDYPKAPIKLTMKS [YIL161W 160-173],5.9
6,LARPPPPKRIRTDS [YKL139W 32-45],1260
7,LENPSTPDKTEEDW [YKL010C 724-737],27.7
8,LAPPLSPTKPSPLH [YDR425W 253-266],30.7
9,LSIPDLPLRIHNQT [YCR087W 13-26],2710
10,LHGPFKPVKSSNGE [YER134C 25-38],107
11,LDDPFTPPRWLHHI [YDR128W 52-65],89
12,LIMPIYPYRLVSTI [YIL173W 525-538],189
13,LDHPNIPWKLIISG [YJR117W 8-21],7.6
14,LIPPGFPTKNYPPG [YCL010C 185-198],0
